Source: paper PMC6900781

How the values were obtained:
Settings in all cases: remark: other sources report otherwise
[1] = target: (dCENP-A/dH4) dimer (Drosophila melanogaster), Q9V6Q2; assay: SEC-MALS; recombinant proteins; Superdex 200 10/300 Increase GL, 50 mM HEPES pH 8.0, 150 or 300 mM NaCl, 1 mM TCEP, 22°C, 100 μl of 1-5 mg/ml
[2] = target: T1, GFP-LacI-dCENP-C (Drosophila melanogaster), Q9VHP9; assay: LacI/LacO tethering and recruitment assay (immunofluorescence); as a1, but with a third Drosophila centromere protein (CAL1-V5, dCENP-A-HA or -V5, or HA-dCENP-C) co-expressed, as named in the row
T1 chain: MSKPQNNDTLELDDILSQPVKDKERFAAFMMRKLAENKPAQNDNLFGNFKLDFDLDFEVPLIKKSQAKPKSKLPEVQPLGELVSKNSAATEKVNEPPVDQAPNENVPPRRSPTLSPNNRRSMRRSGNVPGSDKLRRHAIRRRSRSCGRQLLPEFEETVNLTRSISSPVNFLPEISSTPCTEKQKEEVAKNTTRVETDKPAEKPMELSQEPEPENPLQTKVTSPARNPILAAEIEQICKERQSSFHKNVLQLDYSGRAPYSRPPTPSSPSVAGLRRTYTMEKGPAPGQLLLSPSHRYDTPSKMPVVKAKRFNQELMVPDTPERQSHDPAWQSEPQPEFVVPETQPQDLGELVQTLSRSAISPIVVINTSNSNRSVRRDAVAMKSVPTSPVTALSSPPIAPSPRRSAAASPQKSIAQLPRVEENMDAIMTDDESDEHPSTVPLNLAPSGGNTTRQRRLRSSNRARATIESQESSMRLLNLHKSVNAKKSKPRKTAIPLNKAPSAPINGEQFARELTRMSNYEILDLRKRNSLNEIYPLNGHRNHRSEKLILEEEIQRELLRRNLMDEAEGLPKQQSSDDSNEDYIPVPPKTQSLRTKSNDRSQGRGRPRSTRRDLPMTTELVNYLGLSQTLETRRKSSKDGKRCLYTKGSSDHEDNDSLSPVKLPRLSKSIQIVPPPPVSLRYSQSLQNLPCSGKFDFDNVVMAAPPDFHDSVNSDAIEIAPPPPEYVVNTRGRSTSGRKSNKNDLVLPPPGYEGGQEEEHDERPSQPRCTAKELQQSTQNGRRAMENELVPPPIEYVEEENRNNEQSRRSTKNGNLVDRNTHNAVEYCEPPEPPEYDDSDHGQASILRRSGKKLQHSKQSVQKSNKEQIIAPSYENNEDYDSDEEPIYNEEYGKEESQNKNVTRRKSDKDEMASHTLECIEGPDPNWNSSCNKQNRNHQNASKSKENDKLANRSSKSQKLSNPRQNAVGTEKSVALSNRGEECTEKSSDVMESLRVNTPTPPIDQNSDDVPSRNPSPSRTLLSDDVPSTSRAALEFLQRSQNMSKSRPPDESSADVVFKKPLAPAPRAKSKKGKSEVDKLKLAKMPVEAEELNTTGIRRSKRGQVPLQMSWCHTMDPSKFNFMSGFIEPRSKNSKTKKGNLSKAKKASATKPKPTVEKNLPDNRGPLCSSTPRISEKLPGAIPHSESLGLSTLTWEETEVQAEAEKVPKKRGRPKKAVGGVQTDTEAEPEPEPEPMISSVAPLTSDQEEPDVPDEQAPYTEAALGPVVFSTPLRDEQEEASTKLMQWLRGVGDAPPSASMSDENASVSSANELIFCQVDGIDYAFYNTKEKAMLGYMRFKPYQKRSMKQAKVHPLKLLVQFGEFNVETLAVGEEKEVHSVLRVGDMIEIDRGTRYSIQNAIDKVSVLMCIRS

[3] = target: T1, GFP-LacI-dCENP-C (Drosophila …); assay: LacI/LacO tethering and recruitment assay (immunofluorescence); bait fused to GFP-LacI tethered to chromosomal LacO arrays in human U2OS cells; HA- or V5-tagged prey transiently co-expressed; IF 48 h after transfection, prey intensity at the LacO spot or % of cells; no third Drosophila centromere protein co-expressed
[4] = target: T2, dCENP-A-GFP-LacI (Drosophila melanogaster), Q9V6Q2; assay: LacI/LacO tethering and recruitment assay (immunofluorescence); as a1, but with a third Drosophila centromere protein (CAL1-V5, dCENP-A-HA or -V5, or HA-dCENP-C) co-expressed, as named in the row
T2 chain: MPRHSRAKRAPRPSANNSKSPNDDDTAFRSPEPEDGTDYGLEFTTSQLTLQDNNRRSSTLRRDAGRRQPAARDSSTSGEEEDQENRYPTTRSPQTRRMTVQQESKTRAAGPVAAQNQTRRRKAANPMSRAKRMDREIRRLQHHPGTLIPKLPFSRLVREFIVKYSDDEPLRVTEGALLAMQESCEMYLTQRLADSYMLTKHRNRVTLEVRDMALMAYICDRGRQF

[5] = target: T2, dCENP-A-GFP-LacI (Drosophila …); assay: LacI/LacO tethering and recruitment assay (immunofluorescence); bait fused to GFP-LacI tethered to chromosomal LacO arrays in human U2OS cells; HA- or V5-tagged prey transiently co-expressed; IF 48 h after transfection, prey intensity at the LacO spot or % of cells; no third Drosophila centromere protein co-expressed

B1: recombinant CAL1(1-160), Q9VEN2 1-160 (domain or fragment)
chain: MANAVVDEETLEAMVYERSKAWSSKMADFASLEDGMEIDVAEFDNLFHGEDEDPDLDDVAKEAVEDNVPDEAKLEMGHINATSVTELTLILCANEDNEAKAEIEEILNQTVPVVEEHKRKWREAGLDRILDTFDEKQIEHHVGRWMRRHNSVYLEASPPK
- stoichiometry N ((dCENP-A/dH4) dimer per CAL1(1-160)) [1]: 1

B2: dCENP-A-HA, Q9V6Q2 1-225 (natural protein)
chain: T2 chain
- % of cells with localization at LacO (with CAL1-V5) [2]: 73 % cells
- % of cells with localization at LacO (without CAL1) [3]: 43 % cells

B3: HA-dCENP-C, Q9VHP9 1-1411 (natural protein)
chain: T1 chain
- % of cells with recruitment at LacO (with CAL1-V5) [4]: 55 % cells
- % of cells with recruitment at LacO (without CAL1-V5) [5]: 17 % cells
